Measured values reported in article PMC8464072, “YB-1 unwinds mRNA secondary structures in vitro and negatively regulates stress granule assembly in HeLa cells”.

Experiments:
YB-1 (full length) = YB-1 (full length) (UniProt P67809 1-324); experiment: fluorescence melting; 130 mM KCl, 30 C; 10:1 protein:DNA; opening of hairpin; NMR: 25 mM phosphate pH 6.8, 25 mM KCl, 298 K, 50-100 uM protein; EMSA: 20 mM HEPES pH 7.5, 60 mM KCl, room temperature; melting: 10 mM HEPES-KOH pH 7.6, 130 mM KCl, 30 C; details: protein: recombinant, tags: His tag (Ni-NTA), label: 5' FAM, 3' BHQ1
YB-1C [1] = target: T1, YB-1C (UniProt P67809 1-180); experiment: fluorescence melting; 130 mM KCl, 30 C; 10:1 protein:DNA; NMR: 25 mM phosphate pH 6.8, 25 mM KCl, 298 K, 50-100 uM protein; EMSA: 20 mM HEPES pH 7.5, 60 mM KCl, room temperature; melting: 10 mM HEPES-KOH pH 7.6, 130 mM KCl, 30 C; details: protein: recombinant; tags: His tag (Ni-NTA); label: 5' FAM, 3' BHQ1; hairpin
YB-1-KY [2] = target: T2, YB-1-KY (UniProt P67809 1-180, K137A;Y138A); experiment: NMR (1H-15N HSQC); no multiple peaks; stem not destabilized; NMR: 25 mM phosphate pH 6.8, 25 mM KCl, 298 K, 50-100 uM protein; EMSA: 20 mM HEPES pH 7.5, 60 mM KCl, room temperature; melting: 10 mM HEPES-KOH pH 7.6, 130 mM KCl, 30 C; details: protein: recombinant; tags: His tag (Ni-NTA); hairpin, 10 bp stem, 4 nt loop
YB-1-RK [3] = target: T3, YB-1-RK (UniProt P67809 1-180, R97A;K98A); experiment: as above; details: protein: recombinant; tags: His tag (Ni-NTA); hairpin, 10 bp stem, 4 nt loop
YB-1C [4] = target: T1, YB-1C; experiment: NMR (1H-15N HSQC); multiple peaks; NMR: 25 mM phosphate pH 6.8, 25 mM KCl, 298 K, 50-100 uM protein; EMSA: 20 mM HEPES pH 7.5, 60 mM KCl, room temperature; melting: 10 mM HEPES-KOH pH 7.6, 130 mM KCl, 30 C; details: protein: recombinant; tags: His tag (Ni-NTA); hairpin, 10 bp stem, 4 nt loop
YB-1C [5] = target: T1, YB-1C; experiment: NMR (1H-15N HSQC); single peaks; NMR: 25 mM phosphate pH 6.8, 25 mM KCl, 298 K, 50-100 uM protein; EMSA: 20 mM HEPES pH 7.5, 60 mM KCl, room temperature; melting: 10 mM HEPES-KOH pH 7.6, 130 mM KCl, 30 C; details: protein: recombinant; tags: His tag (Ni-NTA)
YB-1-KY [6] = target: T2, YB-1-KY; experiment: NMR (1H-15N HSQC); CSD binding unaffected vs wild type; NMR: 25 mM phosphate pH 6.8, 25 mM KCl, 298 K, 50-100 uM protein; EMSA: 20 mM HEPES pH 7.5, 60 mM KCl, room temperature; melting: 10 mM HEPES-KOH pH 7.6, 130 mM KCl, 30 C; details: protein: recombinant; tags: His tag (Ni-NTA)
YB-1-RK [7] = target: T3, YB-1-RK; experiment: as above; details: protein: recombinant; tags: His tag (Ni-NTA)
FUS RRM = FUS RRM (UniProt P35637 275-385); experiment: NMR; CSPs (data not shown); no stem opening at 1.75:1; NMR: 25 mM phosphate pH 6.8, 25 mM KCl, 298 K, 50-100 uM protein; EMSA: 20 mM HEPES pH 7.5, 60 mM KCl, room temperature; melting: 10 mM HEPES-KOH pH 7.6, 130 mM KCl, 30 C; details: protein: recombinant; hairpin, 10 bp stem, 4 nt loop
YB-1C [8] = target: T1, YB-1C; experiment: NMR (1H imino and 1H-15N HSQC); multiple peaks at 1:1, lost at 0.25:1; NMR: 25 mM phosphate pH 6.8, 25 mM KCl, 298 K, 50-100 uM protein; EMSA: 20 mM HEPES pH 7.5, 60 mM KCl, room temperature; melting: 10 mM HEPES-KOH pH 7.6, 130 mM KCl, 30 C; details: protein: recombinant; tags: His tag (Ni-NTA); hairpin, 10 bp stem, 4 nt loop

T1 sequence (P67809 1-180): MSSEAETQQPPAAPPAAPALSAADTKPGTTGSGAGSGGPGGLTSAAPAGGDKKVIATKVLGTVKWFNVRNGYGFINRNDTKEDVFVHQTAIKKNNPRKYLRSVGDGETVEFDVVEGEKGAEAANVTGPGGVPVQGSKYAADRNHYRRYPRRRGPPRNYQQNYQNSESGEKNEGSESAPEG
T2 sequence (P67809 1-180 K137A/Y138A): as the sequence (P67809 1-180) above, with K137A, Y138A counted along it
T3 sequence (P67809 1-180 R97A/K98A): as the sequence (P67809 1-180) above, with R97A, K98A counted along it
Chain of YB-1 (full length) (P67809 whole entry): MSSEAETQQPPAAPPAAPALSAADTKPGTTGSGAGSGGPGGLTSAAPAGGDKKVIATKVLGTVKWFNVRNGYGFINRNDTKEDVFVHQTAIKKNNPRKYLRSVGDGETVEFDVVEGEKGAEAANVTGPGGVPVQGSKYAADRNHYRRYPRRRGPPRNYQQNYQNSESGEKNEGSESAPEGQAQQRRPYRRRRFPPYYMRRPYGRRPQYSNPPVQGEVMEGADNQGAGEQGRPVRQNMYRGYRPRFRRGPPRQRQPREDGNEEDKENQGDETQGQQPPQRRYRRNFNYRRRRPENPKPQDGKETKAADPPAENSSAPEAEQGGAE
Chain of FUS RRM (P35637 275-385): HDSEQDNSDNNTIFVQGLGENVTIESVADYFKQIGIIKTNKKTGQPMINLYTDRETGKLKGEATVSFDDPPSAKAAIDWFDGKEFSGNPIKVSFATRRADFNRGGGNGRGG

## GGGGGGGGTTAACCCCCCCC (structured_DNA) [DNA1 hairpin]
YB-1 (full length)
  binding result: binds
YB-1C [1]
  binding result: binds

## ACAGACAGAACCCCUUCUGUCUGU (structured_RNA) [ACU-4G RNA stem/loop]
YB-1-KY [2]
  binding result: binds
YB-1-RK [3]
  binding result: binds
YB-1C [4]
  binding result: binds

## AAAAAAAAAA (ssDNA) [A10]
YB-1C [5]
  binding result: binds

## TTTTTTTTTT (ssDNA) [T10]
YB-1C [5]
  binding result: binds

## CCCCCCCCCC (ssDNA) [C10]
YB-1-KY [6]
  binding result: binds
YB-1-RK [7]
  binding result: binds
YB-1C [5]
  binding result: binds

## ACAGACAGAACCCCTTCTGTCTGT (structured_DNA) [ACT-4G DNA stem/loop]
FUS RRM
  binding result: binds
YB-1C [8]
  binding result: binds
